{"source": "patent US20100172907A1", "assay_in_all_cases": "ELISA", "key": {"[1]": {"target": "BSA-conjugated Aβ heptapeptide FFAEDVC"}, "[2]": {"target": "BSA-conjugated Aβ heptapeptide AEFRHDC"}, "[3]": {"target": "BSA-conjugated Aβ heptapeptide VFFAEDC"}, "[4]": {"target": "BSA-conjugated Aβ heptapeptide LVFFAEC"}}}
{"substance": "4G8 (antibody)", "values": [{"measurement": "OD ratio 19-24/BSA", "setting": "[1]", "value": 1}, {"measurement": "Peptide-ratio 19-24/2-7", "setting": "[1]", "value": 1}, {"measurement": "OD ratio 2-7/BSA", "setting": "[2]", "value": 1}, {"measurement": "OD ratio 18-23/BSA", "setting": "[3]", "value": 20}, {"measurement": "Peptide-ratio 18-23/2-7", "setting": "[3]", "value": 20}, {"measurement": "OD ratio 17-22/BSA", "setting": "[4]", "value": 23}, {"measurement": "Peptide-ratio 17-22/2-7", "setting": "[4]", "value": 23}]}
{"substance": "6E10 (antibody)", "values": [{"measurement": "OD ratio 19-24/BSA", "setting": "[1]", "value": 1}, {"measurement": "Peptide-ratio 19-24/2-7", "setting": "[1]", "value": 0.06}, {"measurement": "OD ratio 2-7/BSA", "setting": "[2]", "value": 18}, {"measurement": "OD ratio 18-23/BSA", "setting": "[3]", "value": 1}, {"measurement": "Peptide-ratio 18-23/2-7", "setting": "[3]", "value": 0.06}, {"measurement": "OD ratio 17-22/BSA", "setting": "[4]", "value": 1}, {"measurement": "Peptide-ratio 17-22/2-7", "setting": "[4]", "value": 0.06}]}
{"substance": "AMY-33 (antibody)", "values": [{"measurement": "OD ratio 19-24/BSA", "setting": "[1]", "value": 3}, {"measurement": "Peptide-ratio 19-24/2-7", "setting": "[1]", "value": 0.19}, {"measurement": "OD ratio 2-7/BSA", "setting": "[2]", "value": 16}, {"measurement": "OD ratio 18-23/BSA", "setting": "[3]", "value": 1}, {"measurement": "Peptide-ratio 18-23/2-7", "setting": "[3]", "value": 0.06}, {"measurement": "OD ratio 17-22/BSA", "setting": "[4]", "value": 2}, {"measurement": "Peptide-ratio 17-22/2-7", "setting": "[4]", "value": 0.13}]}
